Measurements: patent publication US20220041650A1

Legend:
[1] = target: CH505TF4.1 SOSIP Trimer (HV1301189, CH505TF.6R.SOSIP.664.v4.1) (HIV-1); experiment: SPR antibody binding; drug substance of the 50 L scale run
[2] = target: CH505TF4.1 SOSIP Trimer (HV1301189, CH505TF.6R.SOSIP.664.v4.1) (HIV-1); experiment: SPR antibody binding; drug substance of the 200 L scale run 1
[3] = target: CH505TF4.1 SOSIP Trimer (HV1301189, CH505TF.6R.SOSIP.664.v4.1) (HIV-1); experiment: SPR antibody binding; drug substance of the 200 L scale run 2

Row | Substance | Kd [1] | Kd [2] | Kd [3]
1 | PGT145 (antibody) | 11 nM | 11.3 nM | 11.7 nM
2 | PGT151 (antibody) | 17.5 nM | 16 nM | 13.1 nM
